Our source for the Kd values is PMC4098866.

For the test, the target named is laminin from mouse EHS (Engelbreth-Holm-Swarm) sarcoma (mouse). The test can be described thus: ELISA. (In an ELISA, binding on a coated surface is turned into a signal by an enzyme label.)
Regarding “RPSA-(225–295) (from UniProt P14206 225-295) (domain or fragment)”, the Kd was 344 nM.
The result for “RPSA-(2–209) (from UniProt P14206 2-209) (domain or fragment)” reads 273 nM; that for “RPSA-(2–295) (from UniProt P14206 2-295) (natural protein)”, 666 nM; that for “RPSA-(210–295) (from UniProt P14206 210-295) (domain or fragment)”, 374 nM.
The result for “RPSA-(2–220) (from UniProt P14206 2-220) (domain or fragment)” reads 691 nM.

A word on the Kd: it is the constant that tells how readily two partners part at equilibrium. Low values mean higher affinity, high ones lower affinity.
